US9090705B2

Key:
Aspart precursor [1] = molecular target: Aspart precursor
Aspart precursor [2] = molecular target: Aspart precursor; remark: listed apart in the source

Carboxypeptidase B (enzyme) gave a Yield (%) of Aspart, trypsin and Carboxypeptidase B added together (Aspart precursor [1]) of 75%, a Yield (%) of Lispro, trypsin and Carboxypeptidase B added together (Lispro precursor) of 78% and a Yield (%) of Glulisine, trypsin and Carboxypeptidase B added together (Glulisine precursor) of 78%.

In the case of Trypsin (enzyme), the conversion of the precursor by trypsin alone (chromatographic profile after 8 hr) (Aspart precursor [2]) is reported as 45%.
